Biological target: Full-length human His6-Kif15 (human) (UniProt Q9NS87)
Experiment: glycerol gradient ultracentrifugation; 2.5 µM hTpx2 (dimer) + 80 nM hKif15 (tetramer), 5-40% glycerol gradient in 35 mM sodium phosphate buffer

Full-length human His6-Kif15 (human), sequence (Q9NS87 whole entry): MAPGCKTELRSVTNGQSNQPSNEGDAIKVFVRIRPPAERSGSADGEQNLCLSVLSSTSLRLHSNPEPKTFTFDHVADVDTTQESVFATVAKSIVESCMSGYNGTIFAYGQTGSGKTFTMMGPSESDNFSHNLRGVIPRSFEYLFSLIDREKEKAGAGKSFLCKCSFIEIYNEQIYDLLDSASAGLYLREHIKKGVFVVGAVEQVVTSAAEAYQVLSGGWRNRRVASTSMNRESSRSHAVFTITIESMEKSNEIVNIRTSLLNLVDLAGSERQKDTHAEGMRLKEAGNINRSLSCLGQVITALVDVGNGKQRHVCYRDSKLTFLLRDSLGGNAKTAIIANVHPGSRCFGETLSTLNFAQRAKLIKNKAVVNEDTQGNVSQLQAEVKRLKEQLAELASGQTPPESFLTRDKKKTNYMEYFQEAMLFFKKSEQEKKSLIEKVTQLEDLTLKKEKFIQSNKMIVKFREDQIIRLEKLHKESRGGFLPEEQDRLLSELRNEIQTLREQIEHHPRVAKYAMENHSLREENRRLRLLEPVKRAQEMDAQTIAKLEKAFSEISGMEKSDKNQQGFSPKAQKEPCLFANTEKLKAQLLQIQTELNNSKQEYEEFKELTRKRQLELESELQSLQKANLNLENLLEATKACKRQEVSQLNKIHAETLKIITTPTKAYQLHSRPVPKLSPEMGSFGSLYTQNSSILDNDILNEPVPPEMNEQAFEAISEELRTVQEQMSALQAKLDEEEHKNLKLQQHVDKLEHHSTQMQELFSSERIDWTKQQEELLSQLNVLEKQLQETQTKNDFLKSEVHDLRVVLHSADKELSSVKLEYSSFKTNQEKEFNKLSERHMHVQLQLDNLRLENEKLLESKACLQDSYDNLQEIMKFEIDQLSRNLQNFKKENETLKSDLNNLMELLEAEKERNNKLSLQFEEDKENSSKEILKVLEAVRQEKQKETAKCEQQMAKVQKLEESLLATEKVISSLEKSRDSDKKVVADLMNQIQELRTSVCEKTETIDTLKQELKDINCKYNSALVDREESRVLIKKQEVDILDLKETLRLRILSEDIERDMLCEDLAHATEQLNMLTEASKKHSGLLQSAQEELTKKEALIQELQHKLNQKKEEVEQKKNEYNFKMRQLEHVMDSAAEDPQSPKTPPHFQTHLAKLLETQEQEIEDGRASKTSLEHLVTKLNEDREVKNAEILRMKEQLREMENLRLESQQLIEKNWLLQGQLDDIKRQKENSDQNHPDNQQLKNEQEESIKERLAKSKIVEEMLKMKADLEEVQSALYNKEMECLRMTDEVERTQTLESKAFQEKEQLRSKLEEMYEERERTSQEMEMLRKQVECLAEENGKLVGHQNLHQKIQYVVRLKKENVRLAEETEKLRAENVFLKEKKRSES

fraction of the provided hKif15 in the complex: 0.33
Substance: human His6-Tpx2 (from UniProt Q9ULW0 1-747) (natural protein)

Reference: paper PMC3965211
